Results taken from patent US20180155451A1 (published 2018).

T1: FcγRIIb extracellular domain with C-terminal His tag (human, UniProt P31994 43-217)
T1 construct: extracellular domain; also called FcgRIIb; 2b; not shown: His tag at the C terminus
T1 sequence (looked up): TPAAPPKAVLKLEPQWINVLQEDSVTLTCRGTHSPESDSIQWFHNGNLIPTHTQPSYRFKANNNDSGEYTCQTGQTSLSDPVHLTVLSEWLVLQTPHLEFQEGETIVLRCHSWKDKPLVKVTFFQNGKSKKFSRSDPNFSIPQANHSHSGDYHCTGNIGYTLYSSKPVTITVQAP

T2: FcγRIIa R (FcγRIIa, allotype R: Arg at position 131) extracellular domain with C-terminal His tag (human, UniProt P12318 34-217)
T2 construct: extracellular domain; also called FcgRIIa R; 2aR; not shown: His tag at the C terminus
T2 sequence (looked up): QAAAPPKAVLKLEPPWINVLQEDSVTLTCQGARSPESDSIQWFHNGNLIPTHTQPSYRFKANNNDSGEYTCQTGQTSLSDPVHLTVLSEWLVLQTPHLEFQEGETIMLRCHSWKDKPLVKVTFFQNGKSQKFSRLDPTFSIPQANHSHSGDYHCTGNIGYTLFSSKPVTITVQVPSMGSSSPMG

B1: GpH7-B3 variant S337_08L/GpL16-k0 (antibody, human IgG1, kappa)
heavy: not shown
light: DIVMTQSPLSLPVTPGEPASISCQASESLVHSNRNTYLHWYLQKPGQSPQLLIYKVSNRFSGVPDRFSGSGSGTDFTLKISRVEAEDVGVYYCSQNTHVPPTFGQGTKVEIERTVAAPSVFIFPPSDEQLKSGTASVVCLLNNFYPREAKVQWKVDNALQSGNSQESVTEQDSKDSTYSLSSTLTLSKADYEKHKVYACEVTHQGLSSPVTKSFNRGEC
notes: homodimerized, mutation in both H chains; also called Ho Ab
B2: GpH7-B3 variant I336_08L/GpL16-k0 (antibody, human IgG1, kappa)
heavy: not shown
light: B1 light
notes: as for B1
B3: GpH7-B3 variant K326_06M/GpL16-k0 (antibody, human IgG1, kappa)
heavy: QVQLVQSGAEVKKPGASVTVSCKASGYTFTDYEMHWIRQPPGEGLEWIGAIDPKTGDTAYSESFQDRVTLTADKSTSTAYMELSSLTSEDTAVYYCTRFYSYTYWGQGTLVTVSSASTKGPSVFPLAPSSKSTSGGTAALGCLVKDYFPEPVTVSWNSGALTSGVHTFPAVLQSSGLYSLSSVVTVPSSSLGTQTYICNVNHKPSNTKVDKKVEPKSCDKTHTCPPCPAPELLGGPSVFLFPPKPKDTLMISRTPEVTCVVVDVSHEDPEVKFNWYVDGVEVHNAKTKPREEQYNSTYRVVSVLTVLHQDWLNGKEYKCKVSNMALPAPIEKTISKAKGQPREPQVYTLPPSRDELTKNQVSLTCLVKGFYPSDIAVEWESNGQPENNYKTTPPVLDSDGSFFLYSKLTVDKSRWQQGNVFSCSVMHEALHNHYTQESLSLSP
light: B1 light
notes: as for B1
B4: GpH7-B3 variant G236_03V/GpL16-k0 (antibody, human IgG1, kappa)
heavy: not shown
light: B1 light
notes: as for B1
B5: GpH7-B3 variant S337_20W/GpL16-k0 (antibody, human IgG1, kappa)
heavy: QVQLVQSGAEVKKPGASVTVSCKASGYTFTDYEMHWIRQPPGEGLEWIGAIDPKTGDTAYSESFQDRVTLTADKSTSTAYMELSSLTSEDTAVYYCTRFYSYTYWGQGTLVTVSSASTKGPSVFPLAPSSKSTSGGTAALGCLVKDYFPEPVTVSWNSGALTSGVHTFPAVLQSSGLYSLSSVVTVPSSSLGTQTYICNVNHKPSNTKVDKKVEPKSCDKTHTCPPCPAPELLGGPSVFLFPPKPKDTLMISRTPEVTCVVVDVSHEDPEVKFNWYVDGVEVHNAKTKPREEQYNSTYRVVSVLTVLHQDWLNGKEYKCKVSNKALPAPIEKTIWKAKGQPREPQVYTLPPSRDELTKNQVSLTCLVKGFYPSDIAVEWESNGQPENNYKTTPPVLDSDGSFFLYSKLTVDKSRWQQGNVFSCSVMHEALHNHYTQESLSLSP
light: B1 light
notes: as for B1
B6: GpH7-B3 variant I336_06M/GpL16-k0 (antibody, human IgG1, kappa)
heavy: not shown
light: B1 light
notes: as for B1
B7: GpH7-B3 variant T335_15Y/GpL16-k0 (antibody, human IgG1, kappa)
heavy: not shown
light: B1 light
notes: as for B1
B8: GpH7-B3 variant A330_16H/GpL16-k0 (antibody, human IgG1, kappa)
heavy: not shown
light: B1 light
notes: as for B1
B9: GpH7-B3 variant L328_06M/GpL16-k0 (antibody, human IgG1, kappa)
heavy: not shown
light: B1 light
notes: as for B1
B10: GpH7-B3 variant T335_13S/GpL16-k0 (antibody, human IgG1, kappa)
heavy: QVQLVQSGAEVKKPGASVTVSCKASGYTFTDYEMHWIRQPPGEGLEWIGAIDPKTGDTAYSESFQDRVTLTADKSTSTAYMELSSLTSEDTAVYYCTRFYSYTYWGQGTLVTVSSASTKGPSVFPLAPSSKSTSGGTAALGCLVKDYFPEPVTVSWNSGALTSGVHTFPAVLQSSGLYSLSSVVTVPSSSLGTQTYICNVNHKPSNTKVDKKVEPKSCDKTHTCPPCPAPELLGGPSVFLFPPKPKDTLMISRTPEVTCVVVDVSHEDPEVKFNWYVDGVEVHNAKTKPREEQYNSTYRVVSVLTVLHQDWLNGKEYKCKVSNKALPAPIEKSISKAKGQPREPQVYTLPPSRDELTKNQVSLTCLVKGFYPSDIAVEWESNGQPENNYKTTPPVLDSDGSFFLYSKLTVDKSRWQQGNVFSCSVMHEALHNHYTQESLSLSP
light: B1 light
notes: as for B1
B11: GpH7-B3 variant H268_19Q/GpL16-k0 (antibody, human IgG1, kappa)
heavy: not shown
light: B1 light
notes: as for B1
B12: GpH7-B3 variant E333_09D/GpL16-k0 (antibody, human IgG1, kappa)
heavy: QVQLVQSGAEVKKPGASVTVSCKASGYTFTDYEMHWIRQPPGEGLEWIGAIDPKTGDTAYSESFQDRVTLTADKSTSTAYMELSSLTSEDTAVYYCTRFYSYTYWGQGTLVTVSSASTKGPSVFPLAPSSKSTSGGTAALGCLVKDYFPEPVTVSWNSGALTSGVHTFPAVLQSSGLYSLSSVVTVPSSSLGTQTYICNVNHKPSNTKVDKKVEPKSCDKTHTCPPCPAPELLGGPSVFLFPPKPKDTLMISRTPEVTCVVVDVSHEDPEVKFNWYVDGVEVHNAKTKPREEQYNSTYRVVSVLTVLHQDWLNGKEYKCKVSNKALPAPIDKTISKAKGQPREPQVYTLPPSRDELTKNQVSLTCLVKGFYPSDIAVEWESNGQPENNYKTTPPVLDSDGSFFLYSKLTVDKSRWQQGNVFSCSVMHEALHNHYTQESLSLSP
light: B1 light
notes: as for B1
B13: GpH7-B3 variant K326_19Q/GpL16-k0 (antibody, human IgG1, kappa)
heavy: not shown
light: B1 light
notes: as for B1
B14: GpH7-B3 variant K326_10E/GpL16-k0 (antibody, human IgG1, kappa)
heavy: not shown
light: B1 light
notes: as for B1
B15: GpH7-B3 variant L235_15Y/GpL16-k0 (antibody, human IgG1, kappa)
heavy: not shown
light: B1 light
notes: as for B1
B16: GpH7-B3 variant K334_08L/GpL16-k0 (antibody, human IgG1, kappa)
heavy: not shown
light: B1 light
notes: as for B1
B17: GpH7-B3 variant L328_14T/GpL16-k0 (antibody, human IgG1, kappa)
heavy: not shown
light: B1 light
notes: as for B1
B18: GpH7-B3 variant H268_18N/GpL16-k0 (antibody, human IgG1, kappa)
heavy: not shown
light: B1 light
notes: as for B1
B19: GpH7-B3 variant L235_20W/GpL16-k0 (antibody, human IgG1, kappa)
heavy: not shown
light: B1 light
notes: as for B1
B20: GpH7-B3 variant K334_16H/GpL16-k0 (antibody, human IgG1, kappa)
heavy: not shown
light: B1 light
notes: as for B1
B21: GpH7-B3 variant Y296_09D/GpL16-k0 (antibody, human IgG1, kappa)
heavy: not shown
light: B1 light
notes: as for B1
B22: GpH7-B3 variant T335_18N/GpL16-k0 (antibody, human IgG1, kappa)
heavy: not shown
light: B1 light
notes: as for B1
B23: GpH7-B3 variant H268_02A/GpL16-k0 (antibody, human IgG1, kappa)
heavy: not shown
light: B1 light
notes: as for B1
B24: GpH7-B3 variant S267_02A/GpL16-k0 (antibody, human IgG1, kappa)
heavy: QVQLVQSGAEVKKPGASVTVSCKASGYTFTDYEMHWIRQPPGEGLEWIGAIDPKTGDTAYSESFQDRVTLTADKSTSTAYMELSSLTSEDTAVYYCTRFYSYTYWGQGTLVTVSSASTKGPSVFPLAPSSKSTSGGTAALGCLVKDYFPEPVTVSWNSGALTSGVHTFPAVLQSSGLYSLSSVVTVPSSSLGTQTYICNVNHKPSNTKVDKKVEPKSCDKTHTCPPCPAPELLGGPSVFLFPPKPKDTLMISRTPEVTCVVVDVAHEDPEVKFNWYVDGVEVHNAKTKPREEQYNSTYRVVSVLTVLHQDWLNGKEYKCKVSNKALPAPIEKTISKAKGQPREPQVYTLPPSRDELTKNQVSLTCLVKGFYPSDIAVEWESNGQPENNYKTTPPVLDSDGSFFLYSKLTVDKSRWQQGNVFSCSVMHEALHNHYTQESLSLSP
light: B1 light
notes: as for B1
B25: GpH7-B3 variant T335_01G/GpL16-k0 (antibody, human IgG1, kappa)
heavy: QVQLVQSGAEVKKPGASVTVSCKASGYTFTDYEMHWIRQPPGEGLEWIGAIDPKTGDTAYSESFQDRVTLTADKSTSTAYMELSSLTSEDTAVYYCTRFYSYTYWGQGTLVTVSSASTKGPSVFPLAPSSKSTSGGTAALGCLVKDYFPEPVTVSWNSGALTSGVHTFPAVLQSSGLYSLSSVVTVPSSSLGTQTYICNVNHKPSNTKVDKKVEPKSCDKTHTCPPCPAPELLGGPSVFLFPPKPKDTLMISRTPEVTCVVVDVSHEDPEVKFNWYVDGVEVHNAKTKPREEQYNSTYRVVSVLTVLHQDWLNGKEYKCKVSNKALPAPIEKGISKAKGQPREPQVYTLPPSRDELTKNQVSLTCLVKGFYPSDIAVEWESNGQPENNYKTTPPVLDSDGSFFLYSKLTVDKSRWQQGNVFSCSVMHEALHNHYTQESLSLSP
light: B1 light
notes: as for B1
B26: GpH7-B3 variant S337_09D/GpL16-k0 (antibody, human IgG1, kappa)
heavy: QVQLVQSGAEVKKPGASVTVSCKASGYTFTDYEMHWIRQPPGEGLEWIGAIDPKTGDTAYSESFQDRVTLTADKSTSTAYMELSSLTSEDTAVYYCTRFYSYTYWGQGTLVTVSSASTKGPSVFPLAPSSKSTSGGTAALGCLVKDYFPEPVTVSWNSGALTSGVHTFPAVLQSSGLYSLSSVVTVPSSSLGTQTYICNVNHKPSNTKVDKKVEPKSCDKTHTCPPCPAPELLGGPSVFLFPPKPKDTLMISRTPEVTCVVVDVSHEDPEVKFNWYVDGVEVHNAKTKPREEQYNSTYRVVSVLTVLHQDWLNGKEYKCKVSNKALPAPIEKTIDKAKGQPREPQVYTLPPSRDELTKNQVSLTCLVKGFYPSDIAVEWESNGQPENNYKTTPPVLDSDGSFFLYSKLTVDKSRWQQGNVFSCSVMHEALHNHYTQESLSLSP
light: B1 light
notes: as for B1
B27: GpH7-B3 variant T335_20W/GpL16-k0 (antibody, human IgG1, kappa)
heavy: not shown
light: B1 light
notes: as for B1
B28: GpH7-B3 variant Y296_16H/GpL16-k0 (antibody, human IgG1, kappa)
heavy: not shown
light: B1 light
notes: as for B1
B29: GpH7-B3 variant S324_02A/GpL16-k0 (antibody, human IgG1, kappa)
heavy: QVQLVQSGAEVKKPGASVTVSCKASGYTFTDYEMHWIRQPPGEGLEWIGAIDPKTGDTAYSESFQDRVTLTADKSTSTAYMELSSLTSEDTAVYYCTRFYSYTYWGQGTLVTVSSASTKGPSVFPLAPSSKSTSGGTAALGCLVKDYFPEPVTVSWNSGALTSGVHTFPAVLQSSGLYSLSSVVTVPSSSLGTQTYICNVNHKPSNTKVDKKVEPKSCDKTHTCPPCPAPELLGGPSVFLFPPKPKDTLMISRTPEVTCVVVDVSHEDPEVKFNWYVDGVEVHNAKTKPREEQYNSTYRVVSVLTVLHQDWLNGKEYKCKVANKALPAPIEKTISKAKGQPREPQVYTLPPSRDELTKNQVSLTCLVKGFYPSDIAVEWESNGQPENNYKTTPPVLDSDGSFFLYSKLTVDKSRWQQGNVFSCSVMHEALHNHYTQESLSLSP
light: B1 light
notes: as for B1
B30: GpH7-B3 variant L235_04F/GpL16-k0 (antibody, human IgG1, kappa)
heavy: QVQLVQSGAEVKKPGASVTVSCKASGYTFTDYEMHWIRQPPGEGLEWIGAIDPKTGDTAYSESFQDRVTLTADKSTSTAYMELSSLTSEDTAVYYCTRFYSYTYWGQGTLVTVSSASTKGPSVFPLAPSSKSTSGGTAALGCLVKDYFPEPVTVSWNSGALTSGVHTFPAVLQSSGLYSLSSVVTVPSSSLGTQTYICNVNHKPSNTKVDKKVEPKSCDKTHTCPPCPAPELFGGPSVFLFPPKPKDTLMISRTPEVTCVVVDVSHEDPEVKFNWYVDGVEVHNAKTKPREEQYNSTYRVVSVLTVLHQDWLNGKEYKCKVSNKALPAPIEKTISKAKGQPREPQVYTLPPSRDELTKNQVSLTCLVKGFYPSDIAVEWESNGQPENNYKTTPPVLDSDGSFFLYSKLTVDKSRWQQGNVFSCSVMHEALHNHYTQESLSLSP
light: B1 light
notes: as for B1
B31: GpH7-B3 variant T335_07I/GpL16-k0 (antibody, human IgG1, kappa)
heavy: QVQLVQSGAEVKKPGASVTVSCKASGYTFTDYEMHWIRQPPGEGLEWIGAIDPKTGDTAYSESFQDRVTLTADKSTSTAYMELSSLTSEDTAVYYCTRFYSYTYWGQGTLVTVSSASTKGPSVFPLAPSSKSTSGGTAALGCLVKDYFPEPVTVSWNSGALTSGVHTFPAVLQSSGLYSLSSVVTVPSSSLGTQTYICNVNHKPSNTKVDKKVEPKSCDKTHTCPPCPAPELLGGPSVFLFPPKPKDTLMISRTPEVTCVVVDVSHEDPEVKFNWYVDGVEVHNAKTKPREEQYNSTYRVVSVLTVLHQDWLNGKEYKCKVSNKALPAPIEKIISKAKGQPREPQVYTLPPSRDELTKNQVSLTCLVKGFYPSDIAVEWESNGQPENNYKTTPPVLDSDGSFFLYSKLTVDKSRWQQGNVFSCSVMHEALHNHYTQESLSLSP
light: B1 light
notes: as for B1
B32: GpH7-B3 variant Y296_04F/GpL16-k0 (antibody, human IgG1, kappa)
heavy: not shown
light: B1 light
notes: as for B1
B33: GpH7-B3 variant G236_07I/GpL16-k0 (antibody, human IgG1, kappa)
heavy: not shown
light: B1 light
notes: as for B1
B34: GpH7-B3 variant S337_10E/GpL16-k0 (antibody, human IgG1, kappa)
heavy: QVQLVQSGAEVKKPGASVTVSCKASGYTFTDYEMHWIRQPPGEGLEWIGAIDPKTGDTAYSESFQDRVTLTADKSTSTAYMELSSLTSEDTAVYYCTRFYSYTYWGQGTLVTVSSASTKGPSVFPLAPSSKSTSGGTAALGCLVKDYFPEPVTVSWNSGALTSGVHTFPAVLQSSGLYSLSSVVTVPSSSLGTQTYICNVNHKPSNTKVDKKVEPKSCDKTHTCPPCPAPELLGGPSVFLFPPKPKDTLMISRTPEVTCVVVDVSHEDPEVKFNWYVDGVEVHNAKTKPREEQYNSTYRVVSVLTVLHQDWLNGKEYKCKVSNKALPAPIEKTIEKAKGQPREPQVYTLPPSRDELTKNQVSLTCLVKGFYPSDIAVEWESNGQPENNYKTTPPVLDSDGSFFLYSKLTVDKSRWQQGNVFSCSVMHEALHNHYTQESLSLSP
light: B1 light
notes: as for B1
B35: GpH7-B3 variant L328_20W/GpL16-k0 (antibody, human IgG1, kappa)
heavy: not shown
light: B1 light
notes: as for B1
B36: GpH7-B3 variant V266_08L/GpL16-k0 (antibody, human IgG1, kappa)
heavy: not shown
light: B1 light
notes: as for B1
B37: GpH7-B3 variant K334_04F/GpL16-k0 (antibody, human IgG1, kappa)
heavy: not shown
light: B1 light
notes: as for B1
B38: GpH7-B3 variant T335_10E/GpL16-k0 (antibody, human IgG1, kappa)
heavy: not shown
light: B1 light
notes: as for B1
B39: GpH7-B3 variant S239_09D/GpL16-k0 (antibody, human IgG1, kappa)
heavy: not shown
light: B1 light
notes: as for B1
B40: GpH7-A5/GpH7-B3 variant Y296_14T/GpL16-k0 (antibody, human IgG1, kappa)
heavy 1: not shown
heavy 2: not shown
light: B1 light
notes: He Ab: alteration in the GpH7-B3 H chain only; also called He Ab
B41: GpH7-A5/GpH7-B3 variant Y300_18N/GpL16-k0 (antibody, human IgG1, kappa)
heavy 1: not shown
heavy 2: not shown
light: B1 light
notes: as for B40
B42: GpH7-A5/GpH7-B3 variant Y296_10E/GpL16-k0 (antibody, human IgG1, kappa)
heavy 1: not shown
heavy 2: not shown
light: B1 light
notes: as for B40
B43: GpH7-A5/GpH7-B3 variant Y300_04F/GpL16-k0 (antibody, human IgG1, kappa)
heavy 1: not shown
heavy 2: not shown
light: B1 light
notes: as for B40
B44: GpH7-A5/GpH7-B3 variant Y296_18N/GpL16-k0 (antibody, human IgG1, kappa)
heavy 1: not shown
heavy 2: not shown
light: B1 light
notes: as for B40
B45: GpH7-A5/GpH7-B3 variant Y296_19Q/GpL16-k0 (antibody, human IgG1, kappa)
heavy 1: not shown
heavy 2: not shown
light: B1 light
notes: as for B40
B46: GpH7-A5/GpH7-B3 variant Y296_13S/GpL16-k0 (antibody, human IgG1, kappa)
heavy 1: not shown
heavy 2: not shown
light: B1 light
notes: as for B40
B47: GpH7-A5/GpH7-B3 variant Y296_16H/GpL16-k0 (antibody, human IgG1, kappa)
heavy 1: not shown
heavy 2: not shown
light: B1 light
notes: as for B40

Target: FcγRIIa H (human FcγRIIa, allotype with His at position 131), extracellular domain with C-terminal His tag (human, UniProt P12318 34-217)
Assay: SPR (Biacore), antibody captured on antigen peptide chip, FcγR as analyte; relative to HoCon Ab GpH7-B3/GpL16-k0 = 100

Row | Ho/Con_2aH | Binder
1 | 93.1 control = 100 | B1
2 | 101 control = 100 | B2
3 | 101 control = 100 | B3
4 | 111 control = 100 | B4
5 | 96.6 control = 100 | B5
6 | 100 control = 100 | B6
7 | 102 control = 100 | B7
8 | 101 control = 100 | B8
9 | 100 control = 100 | B9
10 | 101 control = 100 | B10
11 | 102 control = 100 | B11
12 | 103 control = 100 | B12
13 | 100 control = 100 | B13
14 | 101 control = 100 | B14
15 | 107 control = 100 | B15
16 | 103 control = 100 | B16
17 | 110 control = 100 | B17
18 | 110 control = 100 | B18
19 | 112 control = 100 | B19
20 | 101 control = 100 | B20

Row | Ho/Con_2aH | Binder
21 | 99.9 control = 100 | B21
22 | 98 control = 100 | B22
23 | 111 control = 100 | B23
24 | 120 control = 100 | B24
25 | 101 control = 100 | B25
26 | 107 control = 100 | B26
27 | 98.7 control = 100 | B27
28 | 85.7 control = 100 | B28
29 | 102 control = 100 | B29
30 | 101 control = 100 | B30
31 | 105 control = 100 | B31
32 | 95 control = 100 | B32
33 | 101 control = 100 | B33
34 | 101 control = 100 | B34
35 | 112 control = 100 | B35
36 | 91.5 control = 100 | B36
37 | 103 control = 100 | B37
38 | 105 control = 100 | B38
39 | 112 control = 100 | B39

Target: T1, FcγRIIb extracellular domain with …
Assay: SPR Biacore, antibody captured, FcgR analyte; vs HeCon Ab GpH7-A5/GpH7-B3/GpL16-k0 = 100
Description: (§1) The heterodimerized antibodies He Abs in which one of the H chains was introduced with an alteration were assayed for their binding activities to each activating FcγR and inhibitory FcγR according to the method described in Example 4. […] The activating FcγRs in FIGS. 26, 27, 28, and 29 are FcγRIa, FcγRIIa (R), FcγRIIa (H), and FcγRIIIa, respectively.
(§2) Analysis of interaction between objective antibody and the FcγR was carried out using Biacore T100 (GE Healthcare). HBS-EP+ (GE Healthcare) was used as the running buffer, and the measurement temperature was set to 25° C. Chips produced by immobilizing the antigen peptide by the amine coupling method to a Series S Sencor Chip CM5 (GE Healthcare), or alternatively, chips produced by allowing preliminarily biotinylated antigen peptides to interact with and immobilize onto a Series S Sensor Chip SA (certified) (GE Healthcare) were used. Antibodies of interest were captured onto an antigen peptide-immobilized chip, and allowed to interact to each FcγR diluted with running buffer. To regenerate and repeatedly use the chip, the antibodies captured on the chip were washed off by reacting 10 mM glycine-HCl, pH 1.5.

Row | He/Con_2b | Binder
40 | 88.2 control = 100 | B40
41 | 82.7 control = 100 | B41
42 | 98 control = 100 | B42
43 | 94.8 control = 100 | B43
44 | 91.5 control = 100 | B44
45 | 89.3 control = 100 | B45
46 | 86.3 control = 100 | B46
47 | 92.2 control = 100 | B47

Target: T2, FcγRIIa R (FcγRIIa, allotype R: Arg at …)
Assay: as above
Description: as §1, §2

Row | He/Con_2aR | Binder
48 | 103 control = 100 | B40
49 | 100 control = 100 | B41
50 | 103 control = 100 | B42
51 | 108 control = 100 | B43
52 | 104 control = 100 | B44
53 | 102 control = 100 | B45
54 | 102 control = 100 | B46
55 | 105 control = 100 | B47
